The target of experiment [1] is Versican V1-5GAG (truncated V1, residues 21-694) (UniProt P13611).
Experiment [2] concerns the target Biglycan, full length, C-terminal 6x-His (human) (UniProt P21810).
Experiment [3] deals with Quenched-fluorescent peptide substrate fluorescein-5(6)-carbonyl-Ala-Glu-Leu-Asn-Gly-Arg-Pro-Ile-Ser-Ile-Ala-Lys(5(6)-TAMRA).
For experiment [4], the target named is Full-length versican V1 (UniProt P13611).
Experiment [5] deals with Versican V1-5GAG (truncated V1, residues 21-694) (UniProt P13611). The source holds these as a separate data set.
Experiment [6] concerns the target Full-length versican V1 (UniProt P13611). The source holds these as a separate data set.

Chain of UniProt P21810 (P21810 38-368): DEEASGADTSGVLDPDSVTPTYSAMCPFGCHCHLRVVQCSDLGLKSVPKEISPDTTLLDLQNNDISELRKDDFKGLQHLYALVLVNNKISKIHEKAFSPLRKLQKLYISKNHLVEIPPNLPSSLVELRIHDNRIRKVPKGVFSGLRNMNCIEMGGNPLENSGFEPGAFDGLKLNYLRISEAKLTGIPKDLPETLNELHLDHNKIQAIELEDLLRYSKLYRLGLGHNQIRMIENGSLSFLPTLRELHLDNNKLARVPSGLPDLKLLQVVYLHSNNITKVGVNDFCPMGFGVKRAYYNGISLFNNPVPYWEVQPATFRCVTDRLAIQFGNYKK

Take “ADAMTS1 variant MDTC (truncated after the cysteine-rich domain) (domain or fragment)”: the kcat/Km for cleavage of V1-5GAG (50 nM), time course with versikine ELISA in experiment [1] stood at 260 M⁻¹ s⁻¹. In experiment [2], the reduction of the 30 kDa biglycan fragment against WT ADAMTS1; variant at 50 nM, 24 h at 37 °C, immunoblot and densitometry came out at 75 % reduction. Further, in experiment [3], the kcat/Km for proteolysis of the QF peptide came out at 4500 M⁻¹ s⁻¹.

B1: A disintegrin-like and metalloproteinase with thrombospondin type 1 motifs 1 (ADAMTS1), wild type (enzyme)
chain: FVSSHRYVETMLVADQSMAEFHGSGLKHYLLTLFSVAARLYKHPSIRNSVSLVVVKILVIHDEQKGPEVTSNAALTLRNFCNWQKQHNPPSDRDAEHYDTAILFTRQDLCGSQTCDTLGMADVGTVCDPSRSCSVIEDDGLQAAFTTAHELGHVFNMPHDDAKQCASLNGVNQDSHMMASMLSNLDHSQPWSPCSAYMITSFLDNGHGECLMDKPQNPIQLPGDLPGTSYDANRQCQFTFGEDSKHCPDAASTCSTLWCTGTSGGVLVCQTKHFPWADGTSCGEGKWCINGKCVNKTDRKHFDTPFHGSWGMWGPWGDCSRTCGGGVQYTMRECDNPVPKNGGKYCEGKRVRYRSCNLEDCPDNNGKTFREEQCEAHNEFSKASFGSGPAVEWIPKYAGVSPKDRCKLICQAKGIGYFFVLQPKVVDGTPCSPDSTSVCVQGQCVKAGCDRIIDSKKKFDKCGVCGGNGSTCKKISGSVTSAKPGYHDIITIPTGATNIEVKQRNQRGSRNNGSFLAIKAADGTYILNGDYTLSTLEQDIMYKGVVLRYSGSSAALERIRSFSPLKEPLTIQVLTVGNALRPKIKYTYFVKKKKESFNAIPTFSAWVIEEWGECSKSCELGWQRRLVECRDINGQPASECAKEVKPASTRPCADHPCPQWQLGEWSSCSKTCGKGYKKRSLKCLSHDGGVLSHESCDPLKKPKHFIDFCTMAECS
Consider B1, for which, in the experiment with Full-length versican V1 [4], the kcat/Km for cleavage of V1 (50 nM) at Glu441-Ala442, time course with versikine ELISA, no cofactor came out at 3400 M⁻¹ s⁻¹. For the same molecule, the kcat/Km for cleavage of V1-5GAG (50 nM) at Glu441-Ala442, time course with versikine ELISA in experiment [5] came out at 4200 M⁻¹ s⁻¹. Besides, the kcat/Km for cleavage of FL versican, as told in the discussion and the abstract with Full-length versican V1 [6] was determined as 3600 M⁻¹ s⁻¹. Further, the kcat/Km for proteolysis of the QF peptide in experiment [3] stood at 4200 M⁻¹ s⁻¹.

Values taken from paper PMC10033314.
